T1: USH1C_2, Q9Y6N9
T1 sequence (Q9Y6N9 206-303, limits assumed, looked up): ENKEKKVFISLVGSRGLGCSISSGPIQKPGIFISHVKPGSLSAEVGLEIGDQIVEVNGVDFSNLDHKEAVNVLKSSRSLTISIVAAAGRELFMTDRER

T2: MPDZ_6, O75970
T2 sequence (O75970 1003-1099, limits assumed, looked up): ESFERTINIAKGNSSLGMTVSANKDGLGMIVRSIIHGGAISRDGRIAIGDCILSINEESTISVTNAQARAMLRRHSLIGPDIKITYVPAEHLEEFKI

T3: PARD6G, Q9BYG4
T3 sequence (Q9BYG4 153-261, limits assumed, looked up): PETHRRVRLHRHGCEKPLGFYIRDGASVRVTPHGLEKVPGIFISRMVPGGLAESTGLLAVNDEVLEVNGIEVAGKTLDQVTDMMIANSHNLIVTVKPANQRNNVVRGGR

T4: SYNPO2L, Q9H987
T4 sequence (Q9H987 1-98, limits assumed, looked up): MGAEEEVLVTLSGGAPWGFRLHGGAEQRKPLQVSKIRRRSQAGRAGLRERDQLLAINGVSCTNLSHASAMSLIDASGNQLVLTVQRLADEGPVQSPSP

T5: MPP1, Q00013
T5 sequence (Q00013 66-162, limits assumed, looked up): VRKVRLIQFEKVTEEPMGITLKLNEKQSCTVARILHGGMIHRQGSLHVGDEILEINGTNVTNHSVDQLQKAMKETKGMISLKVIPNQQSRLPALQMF

T6: MPDZ_3, O75970
T6 sequence (O75970 372-473, limits assumed, looked up): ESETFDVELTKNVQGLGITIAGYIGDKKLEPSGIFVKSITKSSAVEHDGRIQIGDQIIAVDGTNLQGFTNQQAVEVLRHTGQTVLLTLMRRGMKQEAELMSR

T7: NHERF1_1, O14745
T7 sequence (O14745 9-104, limits assumed, looked up): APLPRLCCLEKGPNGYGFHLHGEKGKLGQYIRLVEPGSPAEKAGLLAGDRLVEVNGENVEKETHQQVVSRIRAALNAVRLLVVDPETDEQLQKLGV

T8: PDLIM3, Q53GG5
T8 sequence (Q53GG5 1-94, limits assumed, looked up): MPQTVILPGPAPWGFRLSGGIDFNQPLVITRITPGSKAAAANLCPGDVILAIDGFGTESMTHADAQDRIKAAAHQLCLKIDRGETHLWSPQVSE

T9: APBA3_2, O96018
T9 sequence (O96018 480-570, limits assumed, looked up): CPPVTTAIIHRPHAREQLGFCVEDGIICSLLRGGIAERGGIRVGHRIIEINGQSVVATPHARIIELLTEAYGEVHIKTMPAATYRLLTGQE

T10: GRIP1_1, Q9Y3R0
T10 sequence (Q9Y3R0 48-146, limits assumed, looked up): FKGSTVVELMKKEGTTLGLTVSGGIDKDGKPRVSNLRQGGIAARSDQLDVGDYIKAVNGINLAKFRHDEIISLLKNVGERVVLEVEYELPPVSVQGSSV

T11: PDZD2_1, O15018
T11 sequence (O15018 80-192, limits assumed, looked up): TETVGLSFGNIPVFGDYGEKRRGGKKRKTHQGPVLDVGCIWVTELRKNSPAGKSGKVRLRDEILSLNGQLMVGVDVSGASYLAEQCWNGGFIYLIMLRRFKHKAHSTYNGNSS

T12: SYNJ2BP, P57105
T12 sequence (P57105 8-110, limits assumed, looked up): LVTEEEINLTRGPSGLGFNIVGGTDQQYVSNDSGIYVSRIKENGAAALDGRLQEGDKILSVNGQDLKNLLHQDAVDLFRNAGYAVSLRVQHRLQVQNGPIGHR


Key:
Experiment in all cases: holdup assay
Design in all cases: key: below the threshold = too weak to quantify, mostly under pKd 3.1 to 4
Settings in all cases: plain residues with an end cap or a label only (N-terminal biotin on a linker: ttds)
[1] = target: DLG2_1, Q15700
[2] = target: T1, USH1C_2, Q9Y6N9
[3] = target: MAGI3_5, Q5TCQ9
[4] = target: T2, MPDZ_6, O75970
[5] = target: T3, PARD6G, Q9BYG4
[6] = target: T4, SYNPO2L, Q9H987
[7] = target: T5, MPP1, Q00013
[8] = target: T6, MPDZ_3, O75970
[9] = target: MAST3, O60307
[10] = target: PREX1_1, Q8TCU6
[11] = target: T7, NHERF1_1, O14745
[12] = target: MAGI1_5, Q96QZ7
[13] = target: T8, PDLIM3, Q53GG5
[14] = target: T9, APBA3_2, O96018
[15] = target: CNKSR3, Q6P9H4
[16] = target: PTPN13_2, Q12923
[17] = target: PDZRN4_2, Q6ZMN7
[18] = target: LIMK1, P53667
[19] = target: RIMS2, Q9UQ26
[20] = target: T10, GRIP1_1, Q9Y3R0
[21] = target: T11, PDZD2_1, O15018
[22] = target: Inadl_7, Q8NI35
[23] = target: T12, SYNJ2BP, P57105
[24] = target: DVL2, O14641
[25] = target: MAGI1_4, Q96QZ7
MAGI1_4, Q96QZ7, sequence (Q96QZ7 other isoform, or with tags, fused parts or gaps): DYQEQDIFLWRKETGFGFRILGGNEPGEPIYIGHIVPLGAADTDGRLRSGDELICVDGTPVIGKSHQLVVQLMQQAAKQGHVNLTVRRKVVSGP

PREX1_1, Q8TCU6, sequence (Q8TCU6 608-718): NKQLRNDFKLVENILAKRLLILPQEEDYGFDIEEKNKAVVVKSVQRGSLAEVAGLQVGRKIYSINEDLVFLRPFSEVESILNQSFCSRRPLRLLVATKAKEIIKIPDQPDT
MAGI1_5, Q96QZ7, sequence (Q96QZ7 986-1098): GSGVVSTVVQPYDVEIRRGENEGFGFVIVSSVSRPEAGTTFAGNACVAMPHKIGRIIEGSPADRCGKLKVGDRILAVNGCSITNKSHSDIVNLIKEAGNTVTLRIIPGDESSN
Inadl_7, Q8NI35, sequence (Q8NI35 1219-1332): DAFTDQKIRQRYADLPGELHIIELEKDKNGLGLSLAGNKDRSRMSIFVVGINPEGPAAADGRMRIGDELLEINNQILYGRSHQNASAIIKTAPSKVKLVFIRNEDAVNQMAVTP
MAST3, O60307, sequence (O60307 945-1048): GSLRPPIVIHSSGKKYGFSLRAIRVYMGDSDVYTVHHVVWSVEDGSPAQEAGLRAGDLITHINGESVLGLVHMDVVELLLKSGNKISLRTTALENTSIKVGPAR
DVL2, O14641, sequence (O14641 260-359): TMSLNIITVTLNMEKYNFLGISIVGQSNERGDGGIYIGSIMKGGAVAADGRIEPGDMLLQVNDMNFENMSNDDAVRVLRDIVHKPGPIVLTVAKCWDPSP
RIMS2, Q9UQ26, sequence (Q9UQ26 637-758): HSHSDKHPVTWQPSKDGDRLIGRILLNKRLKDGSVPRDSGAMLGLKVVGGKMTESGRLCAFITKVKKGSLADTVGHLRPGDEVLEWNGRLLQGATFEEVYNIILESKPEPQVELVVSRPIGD
LIMK1, P53667, sequence (P53667 155-268): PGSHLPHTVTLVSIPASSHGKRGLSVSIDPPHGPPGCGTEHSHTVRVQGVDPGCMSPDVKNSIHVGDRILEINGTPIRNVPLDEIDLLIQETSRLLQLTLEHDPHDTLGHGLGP
PDZRN4_2, Q6ZMN7, sequence (Q6ZMN7 389-498): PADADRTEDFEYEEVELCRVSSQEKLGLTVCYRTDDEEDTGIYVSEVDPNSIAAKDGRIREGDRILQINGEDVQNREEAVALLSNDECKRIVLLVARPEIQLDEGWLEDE
MAGI3_5, Q5TCQ9, sequence (Q5TCQ9 847-941): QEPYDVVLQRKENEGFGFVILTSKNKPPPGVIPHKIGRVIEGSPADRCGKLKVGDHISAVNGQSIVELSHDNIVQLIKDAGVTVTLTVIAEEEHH
PTPN13_2, Q12923, sequence (Q12923 1363-1462): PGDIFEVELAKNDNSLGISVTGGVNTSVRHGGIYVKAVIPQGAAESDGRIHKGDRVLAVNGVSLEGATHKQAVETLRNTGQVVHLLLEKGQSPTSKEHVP
CNKSR3, Q6P9H4, sequence (Q6P9H4 203-303): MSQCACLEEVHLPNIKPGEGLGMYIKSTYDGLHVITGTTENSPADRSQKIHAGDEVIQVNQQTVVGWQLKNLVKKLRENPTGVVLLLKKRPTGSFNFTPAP

Binder | pKd [1] | pKd [2] | pKd [3] | pKd [4] | pKd [5] | pKd [6] | pKd [7] | pKd [8] | pKd [9] | pKd [10] | pKd [11] | pKd [12] | pKd [13] | pKd [14] | pKd [15] | pKd [16] | pKd [17] | pKd [18] | pKd [19] | pKd [20] | further results
QSARYRDTEL [TJP2, Q9UDY2] | below the threshold | below the threshold | below the threshold | below the threshold | below the threshold | below the threshold | below the threshold | below the threshold | below the threshold | below the threshold | below the threshold | below the threshold | below the threshold | below the threshold | below the threshold | below the threshold | below the threshold | below the threshold | below the threshold | below the threshold | pKd [21]: below the threshold; pKd [22]: below the threshold; pKd [23]: 5.1; pKd [24]: below the threshold; pKd [25]: below the threshold
STLTIFETAL [ABCC4, O15439] | 4.21 | below the threshold | 4.39 | below the threshold | below the threshold | below the threshold | below the threshold | 4.18 | 4.29 | below the threshold | 5.36 | 5.11 | 4.11 | below the threshold | below the threshold | below the threshold | below the threshold | 4.24 | below the threshold | below the threshold | pKd [21]: 4.19; pKd [22]: below the threshold; pKd [23]: 5.56; pKd [24]: below the threshold; pKd [25]: below the threshold

Source: article PMC9482650, “Quantitative fragmentomics allow affinity mapping of interactomes” (Nature Communications, 2022)
